We go through three molecules from paper PMC6232157, “Human adipose glycerol flux is regulated by a pH gate in AQP10” (Nature Communications, 2018).

One data set addresses His80 (UniProt position 80, NVSGAHLNPAF). In words: kinetics (stopped-flow fluorescence transport assay in intact yeast cells). Conditions: 23 °C; not stated (50 mM K-citrate buffer); 50 mM K-citrate with 1.4 M sorbitol; osmotic shock with 2.1 M glycerol in 50 mM K-citrate; Channel in the yeast plasma membrane, glycerol gradient applied; pH-gated closed (high pH) to open (low pH) transition.

Data set [1] concerns the molecule itself. In words: crystal structure; hanging-drop vapor diffusion at 18 °C, 100 mM MES-NaOH pH 6.0, 19 % PEG 2k MME, 5 % glycerol; entire tetramer in the asymmetric unit; 2.3 Å.

As usually defined, the pKa is the negative logarithm of the acid dissociation constant. Low values mean a group that gives up its proton readily, high ones a group that holds its proton tightly. In the data set with His80, “Aquaporin-10 crystallisation construct (hAQP10cryst) (Homo sapiens; del1-10;del278-301)” gave a pKa of 6.00 ± 0.13.

As to “Aquaporin-10 (hAQP10), full length (Homo sapiens)”, in the data set with His80, the pKa is on record as 5.92 ± 0.20.

B1: human aquaporin 10, crystallized variant hAQP10_(cryst) (domain or fragment, UniProt Q96PS8 11-277, looked up)
chain: MGHLRIRSLLARQCLAEFLGVFVLMLLTQGAVAQAVTSGETKGNFFTMFLAGSLAVTIAIYVGGNVSGAHLNPAFSLAMCIVGRLPWVKLPIYILVQLLSAFCASGATYVLYHDALQNYTGGNLTVTGPKETASIFATYPAPYLSLNNGFLDQVLGTGMLIVGLLAILDRRNKGVPAGLEPVVVGMLILALGLSMGANCGIPLNPARDLGPRLFTYVAGWGPEVFSAGNGWWWVPVVAPLVGATVGTATYQLLVALHHPEGPEPAQD
notes: human aquaglyceroporin AQP10, truncated in the termini (Δ1–10, Δ278–301): the first 10 and the last 24 amino acids removed; codon-optimized cDNA; His8 stretch fused directly to the C-terminus with no protease site; also called human AQP10; source: S. cerevisiae PAP1500, purified (IMAC, SEC); not shown: His8, C-terminal, kept
As a reminder, the stoichiometry N is a count of units in the complex or per binding partner. As for B1, the “stoichiometry N” value in data set [1] is 4.
